From US20200292536A1

Experiments:
[1] = target: BCL2 peptide Ac-…-amide (amino acids 41-54 of human BCL2 with linkers) (human); assay: chromogenic IHC, aggregate of 10 assays
[2] = target: BCL2 peptide Ac-…-amide (amino acids 41-54 of human BCL2 with linkers) (human); assay: chromogenic IHC, aggregate of 10 assays; BCL2 peptide 2.5E-04 M as formulated
[3] = target: Bovine serum albumin (BSA; Ultra Pure) (bovine) (UniProt P02769); assay: chromogenic IHC, aggregate of 10 assays; cores without peptide
[4] = target: BCL2 peptide Ac-…-amide (amino acids 41-54 of human BCL2 with linkers) (human); assay: chromogenic IHC, aggregate of 10 assays; BCL2 peptide 2.5E-06 M as formulated
[5] = target: BCL2 peptide Ac-…-amide (amino acids 41-54 of human BCL2 with linkers) (human); assay: IHC with clone 124 on donor block sections, alternative fixatives
[6] = target: BCL2 peptide Ac-…-amide (amino acids 41-54 of human BCL2 with linkers) (human); assay: chromogenic IHC on BCL2 peptide TMA with or without prior antigen retrieval
[7] = target: Bovine serum albumin (BSA; Ultra Pure) (bovine) (UniProt P02769); assay: chromogenic IHC, aggregate of 10 assays; BSA only cores
[8] = target: Bovine serum albumin (BSA; Ultra Pure) (bovine) (UniProt P02769); assay: immunofluorescent IHC on TMA, cores without peptide
[9] = target: BCL2 peptide Ac-…-amide (amino acids 41-54 of human BCL2 with linkers) (human); assay: chromogenic IHC, aggregate of 10 assays; BCL2 peptide 2.5E-07 M as formulated
[10] = target: BCL2 peptide Ac-…-amide (amino acids 41-54 of human BCL2 with linkers) (human); assay: chromogenic IHC, aggregate of 10 assays; BCL2 peptide 2.5E-05 M as formulated
[11] = target: BCL2 peptide variant with N-terminal arginine (R-C) (human); assay: chromogenic IHC with clone 124 on peptide/BSA gel TMA
[12] = target: Bovine serum albumin (BSA; Ultra Pure) (bovine) (UniProt P02769); assay: chromogenic IHC on TMA, cores without peptide
[13] = target: BCL2 peptide Ac-…-amide (amino acids 41-54 of human BCL2 with linkers) (human); assay: chromogenic IHC, aggregate of 10 assays; BCL2 peptide 2.5E-08 M as formulated
[14] = target: BCL2 peptide Ac-…-amide (amino acids 41-54 of human BCL2 with linkers) (human); assay: chromogenic IHC on peptide/BSA gel TMA, antigen concentration at half-maximum signal
[15] = target: MYC peptide Ac-…-amide (amino acids 9-24) (human); assay: chromogenic IHC on BCL2/MYC peptide TMA
[16] = target: MYC peptide Ac-…-amide (amino acids 9-24) (human); assay: IHC with clone Y69 on donor block sections, alternative fixatives

Sequence of UniProt P02769 (P02769 25-607 limits assumed): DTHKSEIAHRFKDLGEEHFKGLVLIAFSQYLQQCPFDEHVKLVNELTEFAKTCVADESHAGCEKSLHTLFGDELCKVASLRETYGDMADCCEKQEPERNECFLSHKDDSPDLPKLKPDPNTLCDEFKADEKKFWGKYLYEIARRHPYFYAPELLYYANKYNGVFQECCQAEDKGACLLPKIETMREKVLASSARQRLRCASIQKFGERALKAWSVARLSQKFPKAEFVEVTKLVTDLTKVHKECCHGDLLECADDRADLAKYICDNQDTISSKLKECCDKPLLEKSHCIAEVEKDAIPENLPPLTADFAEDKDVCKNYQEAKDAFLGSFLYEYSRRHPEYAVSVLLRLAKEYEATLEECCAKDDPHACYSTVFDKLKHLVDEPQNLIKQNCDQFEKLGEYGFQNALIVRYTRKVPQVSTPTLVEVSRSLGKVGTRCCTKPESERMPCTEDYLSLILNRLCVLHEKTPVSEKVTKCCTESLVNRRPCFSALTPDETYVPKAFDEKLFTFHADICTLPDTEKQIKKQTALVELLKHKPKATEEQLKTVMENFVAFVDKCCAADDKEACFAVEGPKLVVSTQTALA
Sequence of BCL2 peptide Ac-…-amide (amino acids 41-54 of human BCL2 with linkers) (human) (peptide, as listed by the source): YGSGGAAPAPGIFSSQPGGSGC
Sequence of MYC peptide Ac-…-amide (amino acids 9-24) (human) (peptide, as listed by the source): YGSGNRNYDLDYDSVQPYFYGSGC
Sequence of BCL2 peptide variant with N-terminal arginine (R-C) (human) (peptide, as listed by the source mutant): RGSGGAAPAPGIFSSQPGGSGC

Substance | limit of detection (LOD), peptide concentration [1] [nM] | limit of detection (LOD), signal [1] [units] | Intensity Mean (pixel intensity units) [2] | limit of blank (LOB) [3] [units] | Intensity Mean (pixel intensity units) [4] | fold signal, formaldehyde fixation against zinc fixation during heating [5] [fold] | fold signal strength with against without antigen retrieval [6] [fold] | Intensity Mean (pixel intensity units) [7] | non-specific signal in cores containing no added peptide, fold lower than in the chromogenic clone 124 assay [8] [fold] | Intensity Mean (pixel intensity units) [9] | Intensity Mean (pixel intensity units) [10] | ACHM (antigen concentration at half-maximum signal) [11] [nM] | ACHM, fold lower than the original Y-C variant [11] [fold] | non-specific signal in cores containing no added peptide, % of the maximum detectable signal [12] [%] | Intensity Mean (pixel intensity units) [13] | ACHM, fold lower than the ACHM for the chromogenic clone 124 assay [14] [fold] | ACHM, fold lower than the fluorescent clone 124 assay [14] [fold] | ACHM, fold lower than the BCL2 protocol (clone 124 on BCL2 peptide) [15] [fold] | fold signal, formaldehyde fixation against zinc fixation during heating [16] [fold]
CONFIRM anti-bcl-2 (124) Mouse Monoclonal Primary Antibody | 230 | 16 | 212 | 8 | 105 | 10 | 6 | 4.8 | 1000 | 18 | 202 | 443 | 6 | 2.7 | 6.1 |  |  |  | 
rabbit anti-human BCL2 clone EPR17509 (antibody) |  |  |  |  |  |  |  |  |  |  |  |  |  | 23 |  | 8 | > 50 |  | 
rabbit anti-human MYC clone Y69 (antibody) |  |  |  |  |  |  |  |  |  |  |  |  |  |  |  |  |  | 4 | 10
